Measurements published in patent US20220313840A1 (ACADEMIA SINICA, published 2022).

Key:
[1] = target: T1, endogenous EGFR on human carcinoma cell lines (human, UniProt P00533 25-1210); assay: cell ELISA on human carcinoma cell lines with endogenous EGFR
T1 construct: whole, on cells; EGFR expression of the cell lines was checked by Western blotting; also called endogenous cellular EGFR; EGFR on FaDu and Ca9-22 cells

[2] = target: T1, endogenous EGFR on human carcinoma cell …; assay: confocal microscopy of FaDu and Ca9-22 cells, anti-FLAG detection
Procedure: We produced soluble scFv from EGFR-PC10 and designated it as EGFR-s10. Target binding and internalization are essential requirements of LTL-targeting moieties. We investigated these features of EGFR-s10 in SCCHN cancer cell lines. FaDu cells and Ca9-22 cells were separately incubated with EGFR-sl0 at 4° C. or 37° C. for 30 min and compared with isotypic IgG controls. EGFR-sl0 bound to the cell membrane of FaDu and Ca9-22 cells at 4° C. […] (FIGS. 3A-B).

[3] = target: T1, endogenous EGFR on human carcinoma cell …; assay: cell uptake, including EGFR-knockdown cells
Procedure: To evaluate whether internalization and targeting were preserved after EGFR-s10 ligation to liposomes, we tested EGFR-s10-conjugated liposomal SRB in the SCCHN cell lines FaDu and Ca9-22 cells at 37° C. for 30 min (FIGS. 3C-D). No compromise of internalization capacity was discernable in either cell line compared to the previous soluble EGFR-s10.

B1: EGFR-PC10 phage clone (phage-displayed human anti-EGFR scFv) (scFv)
scFv: EVQLVESGGGLVQPGGSLRLSCAASGFNLSSFWMSWVRQAPGKGLEWVANINHDGSDKYYVDSVKGRFSISRDNTKNSVYLQMDSLRGEDTAVYYCAKGKSLYDGSALDMWGQGTMVTVSSGGGGSGGGGSGGGGSDIVMTQSPSTLSASVGDRVTITCRASQTIGRWLAWYQQKPGKAPKLLIYGASSLQSGVPSRFSGSGSGTDFTLTISSLQPEDFATYYCQQSYSTLWTFGQGTKLEIKR
notes: Tested as whole phage particles displaying the scFv, detected with anti-M13 antibody; also called EFGR-PC10 phage; not shown: phage coat protein fusion of the M13 display system; not described
B1: binds [1].

B2: EGFR-s10 scFv (soluble scFv generated from phage clone EGFR-PC10) (scFv)
scFv: B1 scFv
notes: Expressed in E. coli HB2151 from the pFHC vector; also called EGFR-sl0; soluble anti-EGFR human scFv; not shown: flag, 6xHis and cysteine tag from the pFHC vector
B2: binds [2].

B3: EGFR-s10-conjugated ligand-targeting liposomes (LTLs) (other)
scFv: B1 scFv
modifications: reduced cysteine of the tag conjugated to Maleimide-PEG-DSPE inserted in a PEGylated liposome loaded with doxorubicin or vinorelbine
notes: also called EGFR-s10-LD; EGFR-s10-LV; not shown: flag, 6xHis and cysteine tag from the pFHC vector
B3: binds [3].
